We go through 3 molecules from patent US20210380702A1 (Regeneron, published 2021).

Where “and” joins values, the source holds several entries; their conditions need not be identical. Equal values may be shown once.

The target of assay [1] is T1, Human PD-L1 Dimer (human, UniProt Q9NZQ7 19-239).
T1 construct: also called hPD-L1 dimer; hPD-L1-hFc
Kind of assay: SPR (Biacore), mAb captured, 37C. In general terms: Surface plasmon resonance follows binding to a sensor surface in real time, without labels.

The target in assay [2] is T2, recombinant cynomolgus monkey PD-L1 with a C-terminal myc-myc-hexahistidine tag (cynomolgus monkey (Macaca fascicularis)).
T2 construct: also called MfPD-L1-MMH; MfPD-L1-MMH Monomer
T2 sequence (chain, as listed by the source limits assumed): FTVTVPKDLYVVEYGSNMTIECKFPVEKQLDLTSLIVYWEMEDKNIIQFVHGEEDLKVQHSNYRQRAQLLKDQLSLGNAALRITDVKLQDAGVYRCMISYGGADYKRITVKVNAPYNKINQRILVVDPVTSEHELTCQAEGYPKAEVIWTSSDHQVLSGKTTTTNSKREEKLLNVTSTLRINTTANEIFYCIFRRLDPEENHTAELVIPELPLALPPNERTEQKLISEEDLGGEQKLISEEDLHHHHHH
The assay is described as follows: SPR (Biacore), mAb captured, 37C.

Assay [3] deals with T3, recombinant human PD-L1 (amino acids 19-239 of NP_054862.1) with a C-terminal myc-myc-hexahistidine tag (human).
T3 construct: also called hPD-L1-MMH; hPD-L1-MMH Monomer
T3 sequence (chain, as listed by the source limits assumed): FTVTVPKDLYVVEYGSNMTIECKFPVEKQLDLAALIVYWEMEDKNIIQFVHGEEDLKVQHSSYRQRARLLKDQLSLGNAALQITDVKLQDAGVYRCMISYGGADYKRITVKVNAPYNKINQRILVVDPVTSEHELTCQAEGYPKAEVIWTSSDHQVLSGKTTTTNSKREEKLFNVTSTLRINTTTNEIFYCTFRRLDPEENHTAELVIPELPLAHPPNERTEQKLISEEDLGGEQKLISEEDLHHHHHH
The assay is described as follows: SPR (Biacore), mAb captured, 37C.

For assay [4], the target named is T1, Human PD-L1 Dimer. Kind of assay: SPR (Biacore), mAb captured, 25C.
In assay [5] the target is T2, recombinant cynomolgus monkey PD-L1 …. The assay is described as follows: SPR (Biacore), mAb captured, 25C.
The target in assay [6] is T4, recombinant cynomolgus monkey PD-L1 with a C-terminal mouse IgG2a Fc tag (cynomolgus monkey (Macaca fascicularis)).
T4 construct: also called MfPD-L1-mFc; monkey PD-L1-mFc
T4 sequence (chain, as listed by the source limits assumed): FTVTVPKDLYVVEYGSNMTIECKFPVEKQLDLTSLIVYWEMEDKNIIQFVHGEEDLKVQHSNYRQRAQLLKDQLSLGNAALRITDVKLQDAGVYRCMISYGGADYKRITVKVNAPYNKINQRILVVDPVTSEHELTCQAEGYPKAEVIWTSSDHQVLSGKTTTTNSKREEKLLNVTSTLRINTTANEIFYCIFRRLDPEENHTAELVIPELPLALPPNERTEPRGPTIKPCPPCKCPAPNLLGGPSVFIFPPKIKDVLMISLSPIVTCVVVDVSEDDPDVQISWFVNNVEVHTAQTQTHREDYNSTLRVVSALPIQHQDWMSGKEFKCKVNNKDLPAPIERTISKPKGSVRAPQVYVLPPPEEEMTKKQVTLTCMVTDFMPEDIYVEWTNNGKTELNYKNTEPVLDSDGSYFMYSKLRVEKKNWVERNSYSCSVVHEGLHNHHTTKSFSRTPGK
The assay is described as follows: SPR (Biacore), mAb captured, 25C.

T1 sequence (Q9NZQ7 19-239): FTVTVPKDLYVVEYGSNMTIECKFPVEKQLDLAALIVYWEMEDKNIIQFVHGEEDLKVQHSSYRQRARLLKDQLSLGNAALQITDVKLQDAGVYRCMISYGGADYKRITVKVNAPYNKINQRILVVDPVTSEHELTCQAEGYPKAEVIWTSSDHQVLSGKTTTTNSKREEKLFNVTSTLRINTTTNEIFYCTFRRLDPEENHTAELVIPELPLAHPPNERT

B1: H1H9382P2 (antibody, human IgG1, V domains shown)
VH: EVQLVESGGGLVQPGGSLRLSCAASGFTVGTNFMNWVRQAPGKGLEWVSAIYSGGTANYADSVKGRFTISRDTSRNTLYLQMNSLRTEDTAVYYCARGGGMDVWGQGTTVTVSS
VL: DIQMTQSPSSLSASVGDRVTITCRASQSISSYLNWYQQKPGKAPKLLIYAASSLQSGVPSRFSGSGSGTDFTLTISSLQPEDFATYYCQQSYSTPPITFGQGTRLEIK
Take B1: the Kd (commonly the concentration at which binding is half-saturated) in assay [1] came to 0.278 nM; in assay [2] it was 189 nM; in assay [3], 107 nM; in assay [4], 0.663 nM; in assay [5] it was 157 nM; in assay [6], 0.626 nM. The koff (as a rule, the rate constant with which the complex falls apart) amounted to 0.000137 s⁻¹ in assay [1]; 0.0245 s⁻¹ in assay [2]; 0.0107 s⁻¹ in assay [3]; 0.000148 s⁻¹ in assay [4]; 0.0129 s⁻¹ in assay [5]; 0.000133 s⁻¹ in assay [6]. In addition, the kon (as a rule, the rate constant with which the complex forms) in assay [1] was found to be 492000 M⁻¹ s⁻¹; in assay [2], 130000 M⁻¹ s⁻¹; in assay [3] it was 99700 M⁻¹ s⁻¹; in assay [4], 223000 M⁻¹ s⁻¹; in assay [5], 82200 M⁻¹ s⁻¹; in assay [6] it was 213000 M⁻¹ s⁻¹. Further, the t1/2 came to 84 min in assay [1]; 0.5 min in assay [2]; 1.1 min in assay [3]; 78 min in assay [4]; 0.9 min in assay [5]; 87 min in assay [6].

B2: H1H9364P2 (antibody, human IgG1, V domains shown)
VH: EVQLVESGGGLVQPGRSLRLSCAASGFTFDDYALHWVRQAPGKGLEWVSGISWTGGTIDYADSVKGRFTISRDNAKNSLYLQMSSLRTEDTAIYYCTRDIRGNWKYGGWFDPWGQGTLVTVSS
VL: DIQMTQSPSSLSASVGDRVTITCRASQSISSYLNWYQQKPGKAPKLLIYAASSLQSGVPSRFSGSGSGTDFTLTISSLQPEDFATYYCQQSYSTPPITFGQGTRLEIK
As for B2, the Kd in assay [1] was 0.0208 nM; in assay [2], 0.566 nM; in assay [3] it was 0.417 nM; in assay [4] it was 0.0437 nM; in assay [5], 0.412 nM; in assay [6] it was 0.0587 nM and 0.0462 nM. Moreover, the koff in assay [1] is 6.96e-05 s⁻¹; in assay [2], 0.000633 s⁻¹; in assay [3], 0.000563 s⁻¹; in assay [4], 0.000106 s⁻¹; in assay [5] it was 0.000312 s⁻¹; in assay [6], 7.75e-05 s⁻¹ and 5.8e-05 s⁻¹. The kon in assay [1] was 3.34e+06 M⁻¹ s⁻¹; in assay [2] it was 1.12e+06 M⁻¹ s⁻¹; in assay [3], 1.35e+06 M⁻¹ s⁻¹; in assay [4], 2.42e+06 M⁻¹ s⁻¹; in assay [5] it was 757000 M⁻¹ s⁻¹; in assay [6] it was 1.32e+06 M⁻¹ s⁻¹ and 1.25e+06 M⁻¹ s⁻¹. Besides, the t1/2 in assay [1] was 166 min; in assay [2], 18 min; in assay [3], 21 min; in assay [4], 109 min; in assay [5], 37 min; in assay [6], 149 min and 199 min.

B3: H1H9387P2 (antibody, human IgG1, V domains shown)
VH: QVQLVQSGAEVKKPGSSVKVSCKASGGTFNTYVLSWVRQAPGQGLEWMGEIIPILGAANYAQNFQGRVTFTTDESTNTAYMDLSSLRSEDTAVYYCARDRTSGGFDPWGQGTLVTVSS
VL: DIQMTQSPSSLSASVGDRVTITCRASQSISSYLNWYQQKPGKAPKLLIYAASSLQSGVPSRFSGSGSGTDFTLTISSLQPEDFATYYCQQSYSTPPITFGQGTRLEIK
Take B3: the Kd in assay [1] is 0.0639 nM; in assay [2] it was 48.9 nM; in assay [3], 39.1 nM; in assay [4] it was 0.0427 nM; in assay [5], 25.5 nM; in assay [6] it was 0.0452 nM and 0.073 nM. For the same molecule, the koff in assay [1] was 0.000392 s⁻¹; in assay [2] it was 0.157 s⁻¹; in assay [3], 0.137 s⁻¹; in assay [4], 0.000217 s⁻¹; in assay [5], 0.0604 s⁻¹; in assay [6] it was 0.000161 s⁻¹ and 0.000212 s⁻¹. Further, the kon is 6.12e+06 M⁻¹ s⁻¹ in assay [1]; 3.2e+06 M⁻¹ s⁻¹ in assay [2]; 3.49e+06 M⁻¹ s⁻¹ in assay [3]; 5.07e+06 M⁻¹ s⁻¹ in assay [4]; 2.37e+06 M⁻¹ s⁻¹ in assay [5]; 3.55e+06 M⁻¹ s⁻¹ and 2.9e+06 M⁻¹ s⁻¹ in assay [6]. For the same molecule, the t1/2 in assay [1] is 29 min; in assay [2], 0.07 min; in assay [3] it was 0.08 min; in assay [4] it was 53 min; in assay [5], 0.2 min; in assay [6], 72 min and 55 min.
